{"source": "patent US20220233667A1", "about": "(OXFORD UNIVERSITY INNOVATION, published 2022)", "binders": {"B1": {"name": "R5.010 (antibody, V domains shown)", "VH": "EVQLVESGGGLVQPGGSLRLSCAASGFTFSSYWMSWVRQAPGKGLEWVANIKQDGSEKYYVDSVKGRFTISGDNAKNSLYLQMNSLRAEDTAVYYCARGASGYYYYNYGMDVWGQGTRVTVSS", "VL": "QPVLTQPPSVSVAPGQTARITCGGNNIGIKSVHWYQQKPGQAPVLVVYDDSDRPSGIPERFSGSNSANTATLTISRVEAGDEADYFCQVWDSSSDHPGVFGGGTKLTVLG", "notes": "also called mAb10"}, "B2": {"name": "R5.011 (antibody, V domains shown)", "VH": "EVQLVQSGSDLKKPGASVKVSCKASGYTFTSYAMNWVRQAPGQGLEWVGWINTNTGNPTYAQGFTGRFVFSLDTSVSTAYLQISSLKAEDTAVYYCARESPNYYDSSGYYSGYYFDYWGQGTLVTVSS", "VL": "SYELTQPPSVSVAPGQTATITCGGKNIGSKSVHWYQQKPGQAPVLVVYDDSDRPSGIPERFSGSNSGNTATLTISRVEAGDEADYYCQVWDSSSDHRVFGGGTKLTVLG", "notes": "also called mAb11"}, "B3": {"name": "R5.014 (antibody, V domains shown)", "VH": "EVQLVESGGGLVQPGRSLRLSCAASGFTFDDYAMHWVRQAPGKGLEWVSGISWNSASMDYADSVKGRFTISRDNAKNSLYLQMNSLRAEDTALYYCAKDPAPPYCGGDCYPSFDYWGQGTLVTVSS", "VL": "SYELTQPPSMSVAPGKTARITCGGNNIGSKSVHWYQQKPGQAPVLVIYYDSDRPSGIPERFSGSNSGNTATLTISRVEAGDEADYYCQVWDSSRDHVVFGGGTKLTVLG", "notes": "also called mAb14"}, "B4": {"name": "R5.016 (antibody, V domains shown)", "VH": "QVQLVQSGAEVKKPGASVRVSCKASGYTFTSYGISWVRQAPGQGLEWMGWISGYDGNTNYAQKLQGRVTMTTDTSTSTAYMELRSLRSDDTAVYYCARDGPQVGDFDWQVYYYYGMDVWGQGTTVTVSS", "VL": "AIRMTQSPSTLSASVGDRVTITCRASQSINTWLAWYQQKPGKAPNLLISKASSLESGVPSRFSGSGSGTEFTLTISSLQPDDFATYFCQQYNSYLYTFGQGTKVEIRR", "notes": "also called mAb16"}}}
{"biological_target": "T1, PfRH5Nt: amino acids F25-K140 of PfRH5 (3D7) with C-terminal CD4d3+4, biotin acceptor peptide and His6 tags (Plasmodium falciparum (3D7))", "T1 construct": "also called recombinant PfRH5Nt", "T1 chain": "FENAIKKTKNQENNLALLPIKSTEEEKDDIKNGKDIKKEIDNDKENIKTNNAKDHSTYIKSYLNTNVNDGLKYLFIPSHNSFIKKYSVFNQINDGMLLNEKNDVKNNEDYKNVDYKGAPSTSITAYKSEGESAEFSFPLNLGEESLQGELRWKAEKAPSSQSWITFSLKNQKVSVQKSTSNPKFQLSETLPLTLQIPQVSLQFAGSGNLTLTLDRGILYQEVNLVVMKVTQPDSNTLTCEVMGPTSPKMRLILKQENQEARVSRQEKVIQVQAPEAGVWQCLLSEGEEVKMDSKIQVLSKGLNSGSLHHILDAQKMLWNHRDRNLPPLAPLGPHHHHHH", "experiment": "ELISA on coated PfRH5Nt"}
{"binder": "B1", "binding result": "no binding (tested: 1000 ng/mL mAb)"}
{"binder": "B2", "binding result": "no binding (tested: 1000 ng/mL mAb)"}
{"binder": "B3", "binding result": "no binding (tested: 1000 ng/mL mAb)"}
{"binder": "B4", "binding result": "no binding (tested: 1000 ng/mL mAb)"}
